Changes are numbered by the printed parent chain.
Tests used:
human CD33 [1] = target: T1, human CD33 (human, UniProt P20138 18-364); assay: cell-based or functional assay
human CD33 [2] = target: T1, human CD33; assay: cell-based or functional assay; remark: listed apart in the source
human CD33 [3] = target: T1, human CD33; assay: flow cytometry on HEL 92.1.7 AML cells

T1 sequence (P20138 18-364): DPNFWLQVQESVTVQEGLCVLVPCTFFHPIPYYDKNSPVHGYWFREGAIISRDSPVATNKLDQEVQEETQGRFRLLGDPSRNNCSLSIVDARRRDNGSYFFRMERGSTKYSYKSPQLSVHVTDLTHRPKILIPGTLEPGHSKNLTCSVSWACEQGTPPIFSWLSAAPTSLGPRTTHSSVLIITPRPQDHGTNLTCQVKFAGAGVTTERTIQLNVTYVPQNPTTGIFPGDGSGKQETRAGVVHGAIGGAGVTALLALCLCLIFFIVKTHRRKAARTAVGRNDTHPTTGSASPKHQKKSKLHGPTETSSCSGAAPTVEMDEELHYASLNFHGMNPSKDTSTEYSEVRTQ

B1: h2H12EC-SGD-1910 (other)
VH: QVQLVQSGAEVKKPGASVKVSCKASGYTFTNYDINWVRQAPGQGLEWIGWIYPGDGSTKYNEKFKAKATLTADTSTSTAYMELRSLRSDDTAVYYCASGYEDAMDYWGQGTTVTVSS
VL: DIQMTQSPSSLSASVGDRVTINCKASQDINSYLSWFQQKPGKAPKTLIYRANRLVDGVPSRFSGSGSGQDYTLTISSLQPEDFATYYCLQYDEFPLTFGGGTKVEIK
modifications: drug-linker SGD-1910 (pyrrolobenzodiazepine dimer) on the cysteine introduced at position 239 of the IgG1 chain, average about 2 drugs per antibody
Human CD33 [1]
  IC50, cytotoxicity on HEL 92.1.7 cells (96 h, CelltiterGlo): ~12.9 ng/mL
  IC50, cytotoxicity on HL-60 cells (96 h, CelltiterGlo): ~1.6 ng/mL
  mean IC50 over 7 of 7 AML cell lines, cytotoxicity: 20.4 ng/mL
Human CD33 [2]
  IC50 (ng/mL), cytotoxicity on HEL 92.1.7 cells: 7 ng/mL
  IC50 (ng/mL), cytotoxicity on HL-60 cells: 1 ng/mL
  IC50 (ng/mL), cytotoxicity on KG-1 cells: 3 ng/mL
  IC50 (ng/mL), cytotoxicity on MV4-11 cells: 0.1 ng/mL
  IC50 (ng/mL), cytotoxicity on TF1-α cells: 49 ng/mL
  IC50 (ng/mL), cytotoxicity on TF-1 cells: 61 ng/mL
  IC50 (ng/mL), cytotoxicity on U937 cells: 22 ng/mL

B2: HAcL (antibody, V domains shown)
VH: B1 VH with I48M, K67R, A68V, L70M, A72T, S98R
VL: DIKMTQSPSSMYASLGERVIINCKASQDINSYLSWFQQKPGKSPKTLIYRANRLVDGVPSRFSGSGSGQDYSLTISSLEYEDMGIYYCLQYDEFPLTFGAGTKLELK
notes: Hybrid of humanized heavy chain HA and the chimeric light chain (murine VL, human constant region)
Human CD33 [3]
  binding result: no binding (tested: 0.03 nM to 600 nM (methods))

B3: h2H12-SGD-1269 (other)
VH: B1 VH
VL: B1 VL
modifications: drug-linker SGD-1269 (mcMMAF) on thiol groups of interchain disulfide cysteines, average about 4 drugs per antibody
Human CD33 [1]
  IC50, cytotoxicity on HL-60 cells (96 h, CelltiterGlo): 5.3 ng/mL
  mean IC50 for responsive AML cell lines (4 of 7), cytotoxicity: 72.8 ng/mL
Human CD33 [2]
  IC50 (ng/mL), cytotoxicity on HEL 92.1.7 cells: > 1000 ng/mL
  IC50 (ng/mL), cytotoxicity on HL-60 cells: 2 ng/mL
  IC50 (ng/mL), cytotoxicity on KG-1 cells: 270 ng/mL
  IC50 (ng/mL), cytotoxicity on MV4-11 cells: 0.1 ng/mL
  IC50 (ng/mL), cytotoxicity on TF1-α cells: > 1000 ng/mL
  IC50 (ng/mL), cytotoxicity on TF-1 cells: > 1000 ng/mL
  IC50 (ng/mL), cytotoxicity on U937 cells: 19 ng/mL

B4: HFcL (antibody, V domains shown)
VH: B1 VH with R38N, A40R, I48M, K67R, A68V, L70M, A72T, S98R
VL: B2 VL
notes: Hybrid of humanized heavy chain HF and the chimeric light chain (murine VL, human constant region)
Human CD33 [3]
  binding result: no binding (tested: 0.03 nM to 600 nM (methods))

B5: HHcL (antibody, V domains shown)
VH: B1 VH with I48M, K67R, A68V, L70M, A72T, R84S, R87T, S98R
VL: B2 VL
notes: Hybrid of humanized heavy chain HH and the chimeric light chain (murine VL, human constant region)
Human CD33 [3]
  binding result: no binding (tested: 0.03 nM to 600 nM (methods))

B6: HBcL (antibody, V domains shown)
VH: B1 VH with I48M, K67R, A68V, L70M, S98R
VL: B2 VL
notes: Hybrid of humanized heavy chain HB and the chimeric light chain (murine VL, human constant region)
Human CD33 [3]
  binding result: no binding (tested: 0.03 nM to 600 nM (methods))

B7: HEcL (antibody, V domains shown)
VH: B1 VH with K67R, A68V, L70M, A72T, S98R
VL: B2 VL
notes: Hybrid of humanized heavy chain HE and the chimeric light chain (murine VL, human constant region)
Human CD33 [3]
  binding result: no binding (tested: 0.03 nM to 600 nM (methods))

B8: HDcL (antibody, V domains shown)
VH: B1 VH with I48M, K67R, A68V, L70M, A72T, T74K, S98R
VL: B2 VL
notes: Hybrid of humanized heavy chain HD and the chimeric light chain (murine VL, human constant region)
Human CD33 [3]
  binding result: no binding (tested: 0.03 nM to 600 nM (methods))

B9: HGcL (antibody, V domains shown)
VH: B1 VH with I48M, A72T, S98R
VL: B2 VL
notes: Hybrid of humanized heavy chain HG and the chimeric light chain (murine VL, human constant region)
Human CD33 [3]
  binding result: no binding (tested: 0.03 nM to 600 nM (methods))

B10: m2H12-SGD-1269 (other)
VH: QVQLQQSGPELVRPGTFVKISCKASGYTFTNYDINWVNQRPGQGLEWIGWIYPGDGSTKYNEKFKAKATLTADKSSSTAYLQLNNLTSENSAVYFCASGYEDAMDYWGQGTSVTVSS
VL: B2 VL
modifications: conjugated to drug-linker SGD-1269 (mcMMAF); sites and load not stated for the murine antibody
Human CD33 [1]
  IC50, cytotoxicity on HL-60 cells (96 h, CelltiterGlo): 1.3 ng/mL
